These results are taken from patent publication US20240392003A1 (NUMAB THERAPEUTICS, published 2024).

For assay [1], the target named is T1, recombinant human ROR1 protein (Fc-Tag, Acro Biosystems RO1-H5250) (human, UniProt Q01973 30-406).
T1 construct: Bought; also called hROR1; recombinant human ROR1 ECD; not shown: Fc tag
The assay is described as follows: SPR; hROR1-Fc immobilized.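 Note: biacore T200 SPR with ROR1 covalently coupled to a CM5 chip, analyte titration series, apparent rate and equilibrium constants fitted with a 1:1 Langmuir model.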 On the technique in general: SPR reads the build-up and loss of mass on a sensor chip optically.

The target of assay [2] is T2, human serum albumin (Sigma-Aldrich A3782) (human, UniProt P02768 25-609).
T2 construct: also called hSA; HSA
The assay is described as follows: SPR; hSA immobilized, pH 5.5.

Assay [3] has as its target T3, recombinant human CD3 epsilon extra-cellular domain protein (His-Tag, SinoBiological) (human, UniProt P07766 23-126).
T3 construct: extracellular domain; Bought; also called hCD3ε; human CD3ε; not shown: His tag
The assay is described as follows: SPR; hCD3ε immobilized, two-state fit.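 Note: biacore T200 measurement with target covalently coupled to a CM5 chip, antibody constructs injected as analyte over a concentration series, constants derived in Biacore Evaluation software 3.2.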

The target in assay [4] is T4, human ROR1 expressed on cells (human, UniProt Q01973 30-937).
T4 construct: whole, on cells; One molecule for cell-surface ROR1 on all cell lines; the cell line is named under assay; also called hROR1; plasma membrane human ROR1
The assay is described as follows: flow cytometry, MDA-MB-231 cells, 1 mg/ml hSA. On the technique in general: Flow cytometry measures light scatter and fluorescence of single cells or particles in a stream.

Assay [5] concerns the target T3, recombinant human CD3 epsilon …. The assay is described as follows: SPR; hCD3ε immobilized, two-state fit (ka1).
For assay [6] the target is unchanged. As to the kind of experiment: SPR; hCD3ε immobilized, two-state fit (kd1).
The target of assay [7] is T4, human ROR1 expressed on cells. The assay is described as follows: flow cytometry, MDA-MB-231 cells, 1 mg/ml hSA. The source holds these as a separate data set.
For assay [8] the target is unchanged. The assay is described as follows: cell-based or functional assay.
The target is the same in assay [9]. As to the kind of experiment: cell-based or functional assay. This is another data set of the same source.
Assay [10] has the same target. The assay is described as follows: cell-based or functional assay. This is another data set of the same source.
For assay [11] the target is unchanged. The assay is described as follows: cell-based or functional assay. This is another data set of the same source.

Where two headings read alike, the source gives them in different places.

B1: PRO2286 (bispecific antibody)
chain: DVVMTQSPSSLSASVGDRVTITCQASQIISSRSAWYQQKPGQPPKLLIYQASKLASGVPSRFSGSGSGTDFTLTISSLQPEDFATYYCQCTYIDSNFGAFGCGTKLTVLGGGGGSEVQLVESGGGLVQPGGSLRLSCAASGFSLSSYDMSWVRQAPGKGLAWIGASYASGPTYYASWAKGRFTISRDNSKNTVYLQMNSLRAEDTATYFCARGGWTGTSHSNIWGQGTLVTVSSGGGGSGGGGSGGGGSGGGGSDIQMTQSPSSLSASVGDRVTITCQSSQSVFSNNYLAWFQQKPGQSPKRLIYSASTLASGVPSRFSGSGSGTDFTLTISSLQPEDFATYYCLGSYACSSADCYVFGTGTKVTVLGGGGGSEVQLVESGGGLVQPGGSLRLSCAASGFSFSSSYWICWVRQAPGKCLEWVGCVFTGDGTTYYASWAKGRFTISRDNSKNTVYLQMNSLRAEDTATYFCARPVSVYYYGMDLWGQGTLVTVSSGGGGSGGGGSAQQLTQSPSSLSASVGDRVTITCQASQNVWNNNYLSWFQQKPGKPPKLLIVTASTLASGVSSRFSGSGSGTDFTLTISSLQPEDFATYYCAGGFSGEIRAFGTGTKVTVLGGGGGSGGGGSGGGGSGGGGSQSQLVESGGGLVQPGGSLRLSCAVSGLSLSRNAMSWVRQAPGKGLEWIGIILTSGSTYYASWAKGRFTISKDNSKNTVYLQMNSLRAEDTAVYFCVRGIASSSLKSFWGQGTLVTVSS
notes: trispecific anti-ROR1 x hSA x CD3 scMATCH3, single chain; also called 23-13-A01-sc02 diS scDb-o/28-21-D09-sc04 scDb-i/55-39-G02-sc02-scFv
Regarding B1, in [1], the Kd (usually the equilibrium constant for the complex coming apart) amounted to 0.33 nM; the koff (as a rule, a measure of how fast the partners let go of each other) was found to be 0.00045 s⁻¹; the on-rate constant (kon) (in general, a measure of how fast the partners come together) came out at 1.4e+06 M⁻¹ s⁻¹. Further, in assay [2], the Kd worked out at 0.062 nM, the off-rate (koff) amounted to 6.7e-05 s⁻¹ and the kon was 1.1e+06 M⁻¹ s⁻¹. Besides, in assay [3], the Kd is 1.5 nM, the ka2 was found to be 0.00069 s⁻¹ and the kd2 came to 0.0011 s⁻¹. Besides, in assay [4], the “fold lower EC50 binding than parental scFv PRO2062” value was about 5 fold. Besides, in assay [5], the on-rate (kon) worked out at 1.1e+06 M⁻¹ s⁻¹. Further, the koff in assay [6] is 0.0027 s⁻¹. For the same molecule, in assay [7], the EC50 (as a rule, the concentration that produces a half-maximal response) was determined as 1.33 nM and the “Rel. maximum binding (MFIscMATCH3/MFIPRO2213)” value was determined as 1.87.

B2: PRO2287 (bispecific antibody)
chain: DIQMTQSPSSLSASVGDRVTITCQSSESVYSNNQLSWYQQKPGQPPKLLIYDASDLASGVPSRFSGSGSGTDFTLTISSLQPEDFATYYCAGGFSSSSDTAFGCGTKLTVLGGGGGSEVQLVESGGGLVQPGGSLRLSCAASGFSLSSYDMSWVRQAPGKGLAWIGASYASGPTYYASWAKGRFTISRDNSKNTVYLQMNSLRAEDTATYFCARGGWTGTSHSNIWGQGTLVTVSSGGGGSGGGGSGGGGSGGGGSDIQMTQSPSSLSASVGDRVTITCQSSQSVFSNNYLAWFQQKPGQSPKRLIYSASTLASGVPSRFSGSGSGTDFTLTISSLQPEDFATYYCLGSYACSSADCYVFGTGTKVTVLGGGGGSEVQLVESGGGLVQPGGSLRLSCAASGFSLSSNAMGWVRQAPGKCLEYIGIISVGGFTYYASWAKGRFTISRDNSKNTVYLQMNSLRAEDTATYFCARDRHGGDSSGAFYLWGQGTLVTVSSGGGGSGGGGSAQQLTQSPSSLSASVGDRVTITCQASQNVWNNNYLSWFQQKPGKPPKLLIVTASTLASGVSSRFSGSGSGTDFTLTISSLQPEDFATYYCAGGFSGEIRAFGTGTKVTVLGGGGGSGGGGSGGGGSGGGGSQSQLVESGGGLVQPGGSLRLSCAVSGLSLSRNAMSWVRQAPGKGLEWIGIILTSGSTYYASWAKGRFTISKDNSKNTVYLQMNSLRAEDTAVYFCVRGIASSSLKSFWGQGTLVTVSS
notes: trispecific anti-ROR1 x hSA x CD3 scMATCH3, single chain; also called 19-01-H04-sc02/3 diS scDb-o/28-21-D09-sc04 scDb-i/55-39-G02-sc02 scFv
As for B2, in assay [1], the Kd was found to be 0.32 nM, the koff worked out at 0.0004 s⁻¹ and the kon stood at 1.3e+06 M⁻¹ s⁻¹. Besides, in [3], the equilibrium dissociation constant (Kd) stood at 2.1 nM, the ka2 stood at 0.0017 s⁻¹ and the kd2 worked out at 0.002 s⁻¹. Also, the “fold lower EC50 binding than parental scFv PRO2062” value in assay [4] is about 5 fold. Further, the kon in assay [5] turned out to be 870000 M⁻¹ s⁻¹. Besides, in [6], the koff was found to be 0.0034 s⁻¹. Moreover, in [7], a half-maximal effect (EC50) was put at 1.83 nM and the “Rel. maximum binding (MFIscMATCH3/MFIPRO2213)” value amounted to 1.98.

B3: PRO2658 (bispecific antibody)
chain 1: AQQLTQSPSSLSASVGDRVTITCQASQNVWNNNYLSWFQQKPGKPPKLLIVTASTLASGVSSRFSGSGSGTDFTLTISSLQPEDFATYYCAGGFSGEIRAFGTGTKVTVLGGGGGSGGGGSGGGGSGGGGSQSQLVESGGGLVQPGGSLRLSCAVSGLSLSRNAMSWVRQAPGKGLEWIGIILTSGSTYYASWAKGRFTISKDNSKNTVYLQMNSLRAEDTAVYFCVRGIASSSLKSFWGQGTLVTVSSGGGGSGGGGSAFELTQSPSSLSASVGDRVTITCQASESINSRLAWYQQKPGQPPKLLIYDASDLTSGVPSRFSGSGSGTDFTLTISSLQPEDFATYYCQGYGGSSTTTFGCGTKLTVLGGGSGGSDIQMTQSPSSLSASVGDRVTITCQSSQSVFSNNYLAWFQQKPGQSPKRLIYSASTLASGVPSRFSGSGSGTDFTLTISSLQPEDFATYYCLGSYACSSADCYVFGTGTKVTVLG
chain 2: AQQLTQSPSSLSASVGDRVTITCQASQNVWNNNYLSWFQQKPGKPPKLLIVTASTLASGVSSRFSGSGSGTDFTLTISSLQPEDFATYYCAGGFSGEIRAFGTGTKVTVLGGGGGSGGGGSGGGGSGGGGSQSQLVESGGGLVQPGGSLRLSCAVSGLSLSRNAMSWVRQAPGKGLEWIGIILTSGSTYYASWAKGRFTISKDNSKNTVYLQMNSLRAEDTAVYFCVRGIASSSLKSFWGQGTLVTVSSGGGGSGGGGSEVQLVESGGGLVQPGGSLRLSCAASGFSLSSYDMSWVRQAPGKGLAWIGASYASGPTYYASWAKGRFTISRDNSKNTVYLQMNSLRAEDTATYFCARGGWTGTSHSNIWGQGTLVTVSSGGGSGGGSGGGSGEVQLVESGGGLVQPGGSLRLSCAASGFSLSSYAMNWVRQAPGKCLEWIGHINAGDIAYYATWAKGRFTISRDNSKNTVYLQMNSLRAEDTAVYFCARGAGGFSTGPFKLWGQGTLVTVSS
notes: heterodimeric MATCH4
With B3, in [4], the binding result was “binds”.

B4: PRO2510 (bispecific antibody)
chain: AFELTQSPSSLSASVGDRVTITCQASESINSRLAWYQQKPGQPPKLLIYDASDLTSGVPSRFSGSGSGTDFTLTISSLQPEDFATYYCQGYGGSSTTTFGCGTKLTVLGGGGGSEVQLVESGGGLVQPGGSLRLSCAASGFSLSSYDMSWVRQAPGKGLAWIGASYASGPTYYASWAKGRFTISRDNSKNTVYLQMNSLRAEDTATYFCARGGWTGTSHSNIWGQGTLVTVSSGGGGSGGGGSGGGGSGGGGSDIQMTQSPSSLSASVGDRVTITCQSSQSVFSNNYLAWFQQKPGQSPKRLIYSASTLASGVPSRFSGSGSGTDFTLTISSLQPEDFATYYCLGSYACSSADCYVFGTGTKVTVLGGGGGSEVQLVESGGGLVQPGGSLRLSCAASGFSLSSYAMNWVRQAPGKCLEWIGHINAGDIAYYATWAKGRFTISRDNSKNTVYLQMNSLRAEDTAVYFCARGAGGFSTGPFKLWGQGTLVTVSSGGGGSGGGGSAQQLTQSPSSLSASVGDRVTITCQASQNVWNNNYLSWFQQKPGKPPKLLIVTASTLASGVSSRFSGSGSGTDFTLTISSLQPEDFATYYCAGGFSGEIRAFGCGTKVTVLGGGGGSGGGGSGGGGSGGGGSQSQLVESGGGLVQPGGSLRLSCAVSGLSLSRNAMSWVRQAPGKCLEWIGIILTSGSTYYASWAKGRFTISKDNSKNTVYLQMNSLRAEDTAVYFCVRGIASSSLKSFWGQGTLVTVSS
notes: trispecific anti-ROR1 x hSA x CD3 scMATCH3, single chain; also called 19-04-A10-sc06 scDb-o/28-21-D09-sc04 scDb-i/55-39-G02-sc05-scFv
B4: in assay [8], the “EC50 (nM) Cytotoxicity (MDA-MB-231)” value stood at 0.43 nM. Further, in assay [9], the “Avg. % max. lysis (JIMT-1)” value was found to be 72.1%, the “Avg. % max. lysis (MDA-MB-231)” value turned out to be 65.5%, the “Avg. % max. lysis (SKOV3)” value came out at 83.1% and the “Avg. EC50 (nM) CD8 T cell act. (MDA-MB-231)” value was 0.087 nM. In addition, in [9], the “Avg. EC50 (nM) CD8 T cell act. (SKOV3)” value amounted to 0.19 nM, the “Avg. EC50 (nM) Cytotoxicity (JIMT-1)” value turned out to be 1.1 nM, the “Avg. EC50 (nM) Cytotoxicity (MDA-MB-231)” value is 0.14 nM and the “Avg. EC50 (nM) Cytotoxicity (SKOV3)” value worked out at 0.25 nM. For the same molecule, in assay [10], the “Avg. % max. CD8 T cell act. (JIMT-1)” value is 47.6%, the “Avg. % max. CD8 T cell act. (MDA-MB-231)” value was 70.4%, the “Avg. % max. CD8 T cell act. (SKOV3)” value is 79.3% and the “Avg. EC50 (nM) CD8 T cell act. (JIMT-1)” value amounted to 1.1 nM. For the same molecule, in [10], the “Avg. EC50 (nM) CD8 T cell act. (MDA-MB-231)” value was found to be 0.087 nM and the “Avg. EC50 (nM) CD8 T cell act. (SKOV3)” value came out at 0.19 nM. In addition, in [11], the “Avg. % max. CD4 T cell act. (JIMT-1)” value came to 68%, the “Avg. % max. CD4 T cell act. (MDA-MB-231)” value came out at 82%, the “Avg. % max. CD4 T cell act. (SKOV3)” value came out at 87.3% and the “Avg. EC50 (nM) CD4 T cell act. (JIMT-1)” value was found to be 0.8 nM. Besides, in assay [11], the “Avg. EC50 (nM) CD4 T cell act. (MDA-MB-231)” value was determined as 0.036 nM and the “Avg. EC50 (nM) CD4 T cell act. (SKOV3)” value is 0.13 nM. In assay [1], the Kd was 0.46 nM, the koff worked out at 0.0006 s⁻¹ and the on-rate (kon) worked out at 1.3e+06 M⁻¹ s⁻¹. For the same molecule, in [3], the Kd came out at 2.1 nM, the ka2 came out at 0.0013 s⁻¹ and the kd2 was determined as 0.002 s⁻¹. Moreover, the on-rate constant (kon) in [5] was determined as 1e+06 M⁻¹ s⁻¹. Also, the dissociation rate constant (koff) in assay [6] worked out at 0.0036 s⁻¹. Further, in [7], the half-maximal effective concentration (EC50) was 1.36 nM and the “Rel. maximum binding (MFIscMATCH3/MFIPRO2213)” value was 2.61.
